From paper PMC10722681, “RGCC-mediated PLK1 activity drives breast cancer lung metastasis by phosphorylating AMPKα2 to activate oxidative phosphorylation and fatty acid oxidation” (Journal of Experimental & Clinical Cancer Research : CR, 2023)

Biological target: HA-PLK1 (human, UniProt P53350 1-603)
Experiment: cell-based or functional assay

HA-PLK1, sequence (P53350 whole entry): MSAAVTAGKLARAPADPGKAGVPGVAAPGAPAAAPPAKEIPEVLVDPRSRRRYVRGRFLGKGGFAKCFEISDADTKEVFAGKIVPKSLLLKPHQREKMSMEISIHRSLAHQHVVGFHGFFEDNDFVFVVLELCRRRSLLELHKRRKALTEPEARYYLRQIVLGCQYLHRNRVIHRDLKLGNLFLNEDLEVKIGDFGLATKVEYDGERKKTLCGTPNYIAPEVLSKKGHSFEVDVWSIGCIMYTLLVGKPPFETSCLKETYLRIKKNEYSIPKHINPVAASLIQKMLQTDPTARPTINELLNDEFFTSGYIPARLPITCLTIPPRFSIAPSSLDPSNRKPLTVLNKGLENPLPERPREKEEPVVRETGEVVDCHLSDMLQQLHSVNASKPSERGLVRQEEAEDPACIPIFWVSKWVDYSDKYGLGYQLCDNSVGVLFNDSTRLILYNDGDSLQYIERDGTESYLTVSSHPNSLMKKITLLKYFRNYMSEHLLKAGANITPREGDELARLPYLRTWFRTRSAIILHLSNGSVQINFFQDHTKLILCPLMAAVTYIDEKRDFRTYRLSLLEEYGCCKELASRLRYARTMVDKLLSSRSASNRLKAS

B1: GST-RGCC (natural protein, UniProt Q9H4X1 1-137, looked up)
chain: MKPPAAQGSPAAAAAAAPALDSAAAEDLSDALCEFDAVLADFASPFHERHFHYEEHLERMKRRSSASVSDSSGFSDSESADSLYRNSFSFSDEKLNSPTDSTPALLSATVTPQKAKLGDTKELEAFIADLDKTLASM
For B1, the “in vitro PLK1 kinase activity (universal kinase activity kit, purified PLK1 with AMPKα2 and ATP); EC50 of RGCC for activation of PLK1” value was 19.4 nM.
